In article PMC5757175:

Assays:
[1] = biological target: myosin subfragment-1 (S1) from rabbit skeletal muscle (rabbit)
[2] = biological target: myosin subfragment-1 (S1) from rabbit skeletal muscle (rabbit); remark: listed apart in the source

“central domain of Mus musculus UNC-45B (domain or fragment)” was tested, and the apparent Kd of the inhibition of actin filament gliding velocity (myosin S1 fixed on nitrocellulose-coated coverslips, central domain titrated in the assay buffer; 2.2 uM halted gliding) [1] was 400 nM.

B1: full-length Mus musculus UNC-45B (natural protein)
chain: MAEAEAAQLKEEGNRHFQLQDYKAATKSYSQALKLTKDKALLATLYRNRAACGLKMESYAQAASDASRAIDINSADIKALYRRCQALEHLGKLDQAFKDVQRCATLEPRNQNFQETLRRLNTSIQEQLRVQFSTDSRVQTMFEILLNENSEADKREKAANNLIVLGREEAGAERIFQSNGVALLLQLMNTQRPELLLAAVRTLSGMCSGHRARATAILHAVRIDRICSLMALENEEMSLAVCNLLQAIIDSLSGEDKREHRGKEEALVLDTKKDLKQITSHLLDMLVSKKVSGQGRDQALNLLNKNVPRKDLSIHDNSRTIYVVDNGLRKILKVVGQVPDLPSCLPLTDNTRMLASILINKLYDDLRCDPERDHFRKICEEYITSKFDPQDMDKNVNAIQTVSGILQGPFDLGNQLLGMKGVMEMMVALCGSEREADQLVAVEALIHASTKLSRATFIITNGVTLLKQIYKTTKNEKIKIRTLVGLCKLGSAGGSDYGLRQFAEGSTEKLAKQCRKWLCNTAIDTRTRRWAVEGLAYLTLDADVKDDFVQDIPALQAMFELAKARTSDKTILYSVANTLVNCTNSYDVKEVVPELVQLAKFSKQHVPEEHPKDKKDFVDLRVKRLLKAGVISALACMVKADSAILTDQTKELLARVFLALCDNPKDRGTIVAQGGGKALIPLALEGTDVGKVKAAHGLAKIAAVSNPDIAFPGERVYEVVRPLVSLLDTQRDGLQNYEALLGLTNLSGRSDKLRQKIFKEKALPDIENYMFENHDQLRQAATECMCNMVLNKEVQERFLADGNDRLKLVVLLCGEDDHKLQNAAAGALAMLTAAHKKLCLKMTEVTTQWLEILQRLCLHDQLSVQHRGLVIAHNLLSADAELARKLVESELLEILTVVGKQEPDEKRAAVVQTARECLIKCMDYGFIKPVS
Molecule B1 has an apparent Kd of the inhibition of actin filament gliding velocity (myosin S1 fixed on nitrocellulose-coated coverslips, UNC-45B titrated in the assay buffer; 2.8 uM inhibited translocation completely) [2] of 200 nM.
